Data as given in US20110059490, “POLYMERASE COMPOSITIONS AND USES” (Fermentas UAB, published 2011).
Substitutions are numbered along the chain they refer to.

Legend:
[1] = target: Thermococcus sp. DNA polymerase (R671E/K677E/K712E)/N210D R671E,K677E,K712E,N210D (Thermococcus sp.) (UniProt Q56366); experiment: EMSA; details: EMSA as for Taq, 1x TAE with 2 mM EDTA
[2] = target: T1, Thermococcus sp. DNA polymerase (Thermococcus sp.) (UniProt Q56366); experiment: EMSA; details: EMSA as for Taq, 1x TAE with 2 mM EDTA
T1 sequence: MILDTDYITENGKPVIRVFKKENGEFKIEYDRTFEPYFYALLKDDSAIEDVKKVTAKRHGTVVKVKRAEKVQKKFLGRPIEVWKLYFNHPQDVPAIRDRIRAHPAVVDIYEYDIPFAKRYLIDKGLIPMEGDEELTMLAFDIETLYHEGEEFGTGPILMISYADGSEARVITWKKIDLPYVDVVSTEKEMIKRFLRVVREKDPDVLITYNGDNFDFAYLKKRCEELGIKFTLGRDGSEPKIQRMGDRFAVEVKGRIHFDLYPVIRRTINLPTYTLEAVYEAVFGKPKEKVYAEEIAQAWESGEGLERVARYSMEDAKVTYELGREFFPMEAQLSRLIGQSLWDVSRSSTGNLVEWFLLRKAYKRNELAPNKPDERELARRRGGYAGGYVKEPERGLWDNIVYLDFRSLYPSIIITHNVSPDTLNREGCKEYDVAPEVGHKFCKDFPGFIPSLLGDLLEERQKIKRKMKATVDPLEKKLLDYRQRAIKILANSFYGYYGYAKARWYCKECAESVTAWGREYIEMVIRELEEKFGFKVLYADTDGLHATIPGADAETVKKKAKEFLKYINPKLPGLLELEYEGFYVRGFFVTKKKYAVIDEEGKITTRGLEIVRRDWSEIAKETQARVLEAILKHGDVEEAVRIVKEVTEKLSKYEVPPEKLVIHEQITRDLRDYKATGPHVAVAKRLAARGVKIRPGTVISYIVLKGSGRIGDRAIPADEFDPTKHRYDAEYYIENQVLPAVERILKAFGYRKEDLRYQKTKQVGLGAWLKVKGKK

[3] = target: Thermococcus sp. DNA polymerase R671E/K677E R671E,K677E (Thermococcus sp.) (UniProt Q56366); experiment: EMSA; details: EMSA as for Taq, 1x TAE with 2 mM EDTA
[4] = target: Thermococcus sp. DNA polymerase R671E/K677E/K712E R671E,K677E,K712E (Thermococcus sp.) (UniProt Q56366); experiment: EMSA; details: EMSA as for Taq, 1x TAE with 2 mM EDTA
[5] = target: Thermococcus sp. DNA polymerase (R671S/K677S/K712S)/N210D R671S,K677S,K712S,N210D (Thermococcus sp.) (UniProt Q56366); experiment: EMSA; details: EMSA as for Taq, 1x TAE with 2 mM EDTA
[6] = target: T2, Thermococcus sp. DNA polymerase R671S/K677S/K712S R671S,K677S,K712S (Thermococcus sp.) (UniProt Q56366); experiment: EMSA; details: EMSA as for Taq, 1x TAE with 2 mM EDTA
T2 sequence: T1 sequence with R460S, K466S, K501S

[7] = target: T3, Taq DNA polymerase I532T/R536C/K540C/H784C (UniProt P19821 P19821:1-832, I532T,R536C,K540C,H784C); experiment: EMSA; 1x TAE with 2 mM EDTA, pH 8.3; above highest tested 1000 nM; details: tags: Fermentas; label: 5'-33P
Method: (§1) Affinity of Taq DNA polymerase (FIG. 7A) and its mutants (FIG. 7B-J) for double-stranded DNA (template-primer duplex) was analyzed by electrophoretic mobility shift assays (EMSA) as previously described (Lagunavicius et al. (2003) J. Mol. Biol. 326: 1051-1064) except that 1 nM of 24*/44 nt duplex (* indicates ³³P label in 5′-terminus of 24 nt oligonucleotide) formed by annealing of 5′-[…]-3′ (24 nt) and 5′-[…]-3′ (44 nt) and 0, 1, 2, 5, 10, 20, 50, 100, 200, 500, 1000 nM of the proteins were mixed in 1×TAE buffer (40 mM Tris-acetate, pH8.3 at 25° C.; 2 mM EDTA) supplemented with 10% glycerol and electrophoresis was performed in 12% PAAG. The gels were analyzed by Cyclone Storage Phosphor System and OptiQuant™ Image Analysis Software (Packard Instruments) and GraphPad Prism version 4.03 Software (GraphPad Software, Inc.) (FIG. 7).
(§2) Affinity of Taq DNA polymerase (FIG. 8A) and its mutants (FIG. 8B-G) for single-stranded DNA (primer) was analyzed as described in Example 7, except that 5′-labeled 24 nt oligonucleotide (5′-[…]) was used instead of 24*/44 nt duplex (FIG. 8).

[8] = target: T4, Taq DNA polymerase R536C/K540C/D610A/H784C (UniProt P19821 P19821:1-832, R536C,K540C,D610A,H784C); experiment: as above; details: tags: Fermentas; label: 5'-33P
Method: as §1, §2

[9] = target: T5, Taq DNA polymerase (K540C/H784C)/R25S (UniProt P19821 P19821:1-832, K540C,H784C,R25S); experiment: as above; details: tags: Fermentas; label: 5'-33P
Method: as §1, §2

[10] = target: Taq DNA polymerase (R536C/K540C/D610A/H784C)/(Y81F/G187A) (UniProt P19821 P19821:1-832, R536C,K540C,D610A,H784C,Y81F,G187A); experiment: as above; details: tags: Fermentas
Method: as §1, §2

[11] = target: Taq DNA polymerase (I532T/R536C/K540C/H784C)/(R25S/Y81F/G187A) (UniProt P19821 P19821:1-832, I532T,R536C,K540C,H784C,R25S,Y81F,G187A); experiment: as above; details: tags: Fermentas
Method: as §1, §2

[12] = target: T6, Taq DNA polymerase N485S/R536C/K540C/H784C (UniProt P19821 P19821:1-832, N485S,R536C,K540C,H784C); experiment: EMSA; 1x TAE with 2 mM EDTA, pH 8.3; tighter than WT; details: tags: Fermentas; label: 5'-33P
[13] = target: Taq DNA polymerase (K540C/H784C)/Y81F (UniProt P19821 P19821:1-832, K540C,H784C,Y81F); experiment: EMSA; 1x TAE with 2 mM EDTA, pH 8.3, 10% glycerol; details: tags: Fermentas
Method: as §1, §2

[14] = target: Taq DNA polymerase E491G/R536C/K540C/H784C (UniProt P19821 P19821:1-832, E491G,R536C,K540C,H784C); experiment: EMSA; 1x TAE with 2 mM EDTA, pH 8.3, 10% glycerol; details: tags: Fermentas
Method: as §1, §2

Taq DNA polymerase = Taq DNA polymerase (UniProt P19821 P19821:1-832); experiment: EMSA; 1x TAE with 2 mM EDTA, pH 8.3, 10% glycerol; details: tags: recombinant, Fermentas; label: 5'-33P
Method: as §1, §2

[15] = target: Taq DNA polymerase K540C/H784C (UniProt P19821 P19821:1-832, K540C,H784C); experiment: EMSA; 1x TAE with 2 mM EDTA, pH 8.3, 10% glycerol; details: tags: Fermentas
Method: as §1, §2

[16] = target: T3, Taq DNA polymerase …; experiment: EMSA; 1x TAE with 2 mM EDTA, pH 8.3, 10% glycerol; details: tags: Fermentas; label: 5'-33P on 24 nt strand; 24 nt primer annealed to 44 nt template, 20 nt 5' template overhang
Method: as §1, §2

[17] = target: T6, Taq DNA polymerase …; experiment: EMSA; 1x TAE with 2 mM EDTA, pH 8.3, 10% glycerol; details: tags: Fermentas; label: 5'-33P on 24 nt strand; 24 nt primer annealed to 44 nt template, 20 nt 5' template overhang
Method: as §1, §2

[18] = target: T4, Taq DNA polymerase …; experiment: EMSA; 1x TAE with 2 mM EDTA, pH 8.3, 10% glycerol; details: tags: Fermentas; label: 5'-33P on 24 nt strand; 24 nt primer annealed to 44 nt template, 20 nt 5' template overhang
Method: as §1, §2

[19] = target: T5, Taq DNA polymerase (K540C/H784C)/R25S; experiment: EMSA; 1x TAE with 2 mM EDTA, pH 8.3, 10% glycerol; details: tags: Fermentas; label: 5'-33P on 24 nt strand; 24 nt primer annealed to 44 nt template, 20 nt 5' template overhang
Method: as §1, §2

[20] = label: 5'-33P on 24 nt strand, 24 nt primer annealed to 44 nt template, 20 nt 5' template overhang

T6 sequence (P19821 whole entry N485S/R536C/K540C/H784C, one chain of several): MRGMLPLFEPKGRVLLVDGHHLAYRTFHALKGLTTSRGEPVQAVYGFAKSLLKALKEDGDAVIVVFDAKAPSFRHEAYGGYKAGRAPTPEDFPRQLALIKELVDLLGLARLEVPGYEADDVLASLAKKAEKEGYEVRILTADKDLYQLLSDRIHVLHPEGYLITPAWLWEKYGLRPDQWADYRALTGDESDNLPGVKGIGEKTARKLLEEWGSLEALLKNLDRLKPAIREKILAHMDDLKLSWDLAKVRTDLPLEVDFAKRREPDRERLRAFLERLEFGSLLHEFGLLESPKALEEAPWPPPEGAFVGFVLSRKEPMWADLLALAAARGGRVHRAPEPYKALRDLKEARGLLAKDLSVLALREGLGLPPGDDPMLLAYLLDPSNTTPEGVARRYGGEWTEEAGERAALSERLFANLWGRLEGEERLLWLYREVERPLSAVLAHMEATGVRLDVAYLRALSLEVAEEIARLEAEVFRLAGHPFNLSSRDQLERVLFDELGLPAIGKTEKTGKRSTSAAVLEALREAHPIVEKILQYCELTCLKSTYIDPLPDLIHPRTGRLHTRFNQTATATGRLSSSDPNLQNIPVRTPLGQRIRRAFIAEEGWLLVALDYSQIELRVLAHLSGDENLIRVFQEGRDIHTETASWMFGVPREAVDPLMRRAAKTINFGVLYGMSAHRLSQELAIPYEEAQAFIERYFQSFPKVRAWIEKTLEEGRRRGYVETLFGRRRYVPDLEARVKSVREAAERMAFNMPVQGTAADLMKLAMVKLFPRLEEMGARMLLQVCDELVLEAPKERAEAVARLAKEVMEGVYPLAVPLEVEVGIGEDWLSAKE
T4 sequence (P19821 whole entry R536C/K540C/D610A/H784C, one chain of several): as the sequence (P19821 whole entry N485S/R536C/K540C/H784C, one chain of several) above, with S485N, D610A counted along it
Sequence of Taq DNA polymerase K540C/H784C (P19821 whole entry K540C/H784C, one chain of several): as the sequence (P19821 whole entry N485S/R536C/K540C/H784C, one chain of several) above, with S485N, C536R counted along it
T5 sequence (P19821 whole entry R25S/K540C/H784C, one chain of several): as the sequence (P19821 whole entry N485S/R536C/K540C/H784C, one chain of several) above, with R25S, S485N, C536R counted along it
Sequence of Taq DNA polymerase (I532T/R536C/K540C/H784C)/(R25S/Y81F/G187A) (P19821 whole entry R25S/Y81F/G187A/I532T/R536C/K540C/H784C, one chain of several): as the sequence (P19821 whole entry N485S/R536C/K540C/H784C, one chain of several) above, with R25S, Y81F, G187A, S485N, I532T counted along it
Sequence of Taq DNA polymerase (K540C/H784C)/Y81F (P19821 whole entry Y81F/K540C/H784C, one chain of several): as the sequence (P19821 whole entry N485S/R536C/K540C/H784C, one chain of several) above, with Y81F, S485N, C536R counted along it
T3 sequence (P19821 whole entry I532T/R536C/K540C/H784C, one chain of several): as the sequence (P19821 whole entry N485S/R536C/K540C/H784C, one chain of several) above, with S485N, I532T counted along it
Sequence of Taq DNA polymerase (R536C/K540C/D610A/H784C)/(Y81F/G187A) (P19821 whole entry Y81F/G187A/R536C/K540C/D610A/H784C, one chain of several): as the sequence (P19821 whole entry N485S/R536C/K540C/H784C, one chain of several) above, with Y81F, G187A, S485N, D610A counted along it
Sequence of Taq DNA polymerase E491G/R536C/K540C/H784C (P19821 whole entry E491G/R536C/K540C/H784C, one chain of several): as the sequence (P19821 whole entry N485S/R536C/K540C/H784C, one chain of several) above, with S485N, E491G counted along it
Sequence of Taq DNA polymerase (P19821 whole entry, one chain of several): as the sequence (P19821 whole entry N485S/R536C/K540C/H784C, one chain of several) above, with S485N, C536R, C540K, C784H counted along it

TTTTAGCCGCTAGAGTCGACCTGC [24 nt primer]
Kd [1]: 2300 nM
Kd [2]: 52 nM
Kd [3]: 730 nM
Kd [4]: 740 nM
Kd [5]: 440 nM
Kd [6]: 310 nM

TTTTAGCCGCTAGAGTCGACCTGC / GGAGACAAGCTTGTATGCCTGCAGGTCGACTCTAGCGGCTAAAA [24/44 nt template-primer duplex]
Kd [1]: 470 nM
Kd [2]: 2.8 nM
Kd [3]: 240 nM
Kd [4]: 190 nM
Kd [5]: 190 nM
Kd [6]: 110 nM

TTTTAGCCGCTAGAGTCGACCTGC (ssDNA) [24 nt primer]
Kd [7]: 5200 nM
Kd [8]: 2000 nM
Kd [9]: 2700 nM
Kd ([10]; label: 5'-33P): 3700 nM
Kd ([11]; label: 5'-33P): 7700 nM
Kd [12]: 23 nM
Kd ([13]; label: 5'-33P): 350 nM
Kd ([14]; label: 5'-33P): 530 nM
Kd (Taq DNA polymerase): 79 nM
Kd ([15]; label: 5'-33P): 460 nM

B1: 24/44 nt template-primer duplex (dsDNA)
DNA 1: TTTTAGCCGCTAGAGTCGACCTGC
DNA 2: GGAGACAAGCTTGTATGCCTGCAGGTCGACTCTAGCGGCTAAAA
Kd [10, 20]: 2200 nM
Kd [11, 20]: 16000 nM
Kd [13, 20]: 28 nM
Kd [14, 20]: 200 nM
Kd [16]: 990 nM
Kd [17]: 32 nM
Kd [18]: 320 nM
Kd [19]: 56 nM
Kd [15, 20]: 25 nM
